Data taken from the RNAGym collection of RNA variant scans (doi:10.1093/molbev/msab373).

B1: Azoarcus group I ribozyme (parent)
chain: GUGCCUUGCGCCGGGAAACCACGCAAGGGAUGGUGUCAAAUUCGGCGAAACCUAAGCGCCCGCCCGGGCGUAUGGCAACGCCGAGCCAAGCUUCGGCGCCUGCGCCGAUGAAGGUGUAGAGACUAGACGGCACCCACCUAAGGCAAACGCUAUGGUGAAGGCAUAGUCCAGGGAGUGGCGAAAGUCACACAAACCGG

Variants of: B1
Experiment: reverse-splicing fitness (ratio to wild type); higher = more active; in vitro selection; Mg2+ level not given
Procedure, shortened: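 An in vitro group I ribozyme library with randomized positions was T7-transcribed and gel-purified. In triplicate, 10 pmol RNA in EPPS pH 7.5 was reacted with 50 pmoles of a 30-nt RNA substrate for 1 h at 37 °C across several added MgCl2 levels (1–48 mM), then stopped with EDTA. Products were reverse transcribed from a substrate-complementary primer, PCR-amplified and sequenced (HiSeq 4000). Fitness is a variant's read proportion after selection over that before, normalised to wild type.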

Row | Variant | reverse-splicing fitness
1 | C82U A111U A120U C150U C169A U176A | 0.0038
2 | C82U A111U A120U C150U C169A U176C | 0.00314
3 | C82U A111U A120U A145U C150U C169U U176C | 0.00392
4 | C82U A111U A120U A145U C150U C169U U176A | 0.00293
5 | C82U A111U A120U A145U C150U C169U U176G | 0.00227
6 | C82U A111U A145G C150U C169G U176C | 0.0174
7 | C82U A111U A145G C150U C169G U176A | 0.0133
8 | C82U A111U A145G C150U C169G U176G | 0.00598
9 | C82U A111U A120U C169G U176G | 0.00193
10 | C82U A111U A120U C169G U176C | 0.00303
11 | C82U A111U A120U C169G U176A | 0.00316
12 | C82U A111U A145U C150G C169U | 0.00858
13 | C82U A111U A145U C150G C169G | 0.0071
14 | C82U A111U A145U C150G C169A | 0.00958
15 | C82U A111U A120U C150A C169G U176G | 0.0026
16 | C82U A111U A120U C150A C169G U176A | 0.00758
17 | C82U A111U A120U C150A C169G U176C | 0.00448
18 | C82U A111U A145C C150A C169A | 0.00809
19 | C82U A111U A145C C150A C169G | 0.00741
20 | C82U A111U A145C C150A C169U | 0.00873
21 | C82U A111U A145C C150U C169U U176A | 0.0134

Row | Variant | reverse-splicing fitness
22 | C82U A111U A145C C150U C169U U176G | 0.00525
23 | C82U A111U A145C C150U C169U U176C | 0.0076
24 | C82U A111U A145G C150A C169U U176A | 0.016
25 | C82U A111U A145G C150A C169U U176C | 0.0133
26 | C82U A111U A145G C150A C169U U176G | 0.00658
27 | C82U A111U A120U C150U C169A | 0.00397
28 | C82U A111U A120U C150U C169G | 0.00465
29 | C82U A111U A120U C150U C169U | 0.00426
30 | C82U A111U A145C C150A U176A | 0.0116
31 | C82U A111U A145C C150A U176C | 0.013
32 | C82U A111U A145C C150A U176G | 0.00625
33 | C82U A111U A120U C150G C169A | 0.00657
34 | C82U A111U A120U C150G C169U | 0.00478
35 | C82U A111U A120U C150G C169G | 0.00584
36 | C82U A111U A145U C150U C169U U176C | 0.0115
37 | C82U A111U A145U C150U C169U U176A | 0.0148
38 | C82U A111U A145U C150U C169U U176G | 0.00582
39 | C82U A111U A145C C150U U176A | 0.0276
40 | C82U A111U A145C C150U U176G | 0.011
41 | C82U A111U A145C C150U U176C | 0.038
42 | C82U A111U C150A | 0.031

Row | Variant | reverse-splicing fitness
43 | C82U A111U A145C C150G U176A | 0.00994
44 | C82U A111U A145C C150G U176G | 0.00423
45 | C82U A111U A145C C150G U176C | 0.0175
46 | C82U A111U A120U C150U C169U U176C | 0.0041
47 | C82U A111U A120U C150U C169U U176G | 0.00244
48 | C82U A111U A120U C150U C169U U176A | 0.00527
49 | C82U A111U A145C C169U U176A | 0.0134
50 | C82U A111U A145C C169U U176C | 0.0103
51 | C82U A111U A145C C169U U176G | 0.00463
52 | C82U A111U A145U C150G C169U U176A | 0.00893
53 | C82U A111U A145U C150G C169U U176C | 0.0107
54 | C82U A111U A145U C150G C169U U176G | 0.00616
55 | C82U A111U A120U A145U C169U | 0.0039
56 | C82U A111U A120U A145U C169G | 0.00303
57 | C82U A111U A120U A145U C169A | 0.00251
58 | C82U A111U A145U U176C | 0.154
59 | C82U A111U A145U U176A | 0.112
60 | C82U A111U A145U U176G | 0.0313
61 | C82U A111U A145G C169G U176A | 0.0207
62 | C82U A111U A145G C169G U176C | 0.027
63 | C82U A111U A145G C169G U176G | 0.00528

Row | Variant | reverse-splicing fitness
64 | C82U A111U A145C C150G C169G U176G | 0.00581
65 | C82U A111U A145C C150G C169G U176C | 0.00693
66 | C82U A111U A145C C150G C169G U176A | 0.00901
67 | C82U A111U A145C C150U C169A | 0.00776
68 | C82U A111U A145C C150U C169U | 0.0089
69 | C82U A111U A145C C150U C169G | 0.00801
70 | C82U A111U A145G C150G C169G | 0.00754
71 | C82U A111U A145G C150G C169A | 0.00815
72 | C82U A111U A145G C150G C169U | 0.00863
73 | C82U A111U A145G C150A C169G U176C | 0.0254
74 | C82U A111U A145G C150A C169G U176G | 0.00627
75 | C82U A111U A145G C150A C169G U176A | 0.0146
76 | C82U A111U A145C C169A U176C | 0.00614
77 | C82U A111U A145C C169A U176G | 0.00457
78 | C82U A111U A145C C169A U176A | 0.00952
79 | C82U A111U A120U A145U C150A C169G U176G | 0.00192
80 | C82U A111U A120U A145U C150A C169G U176A | 0.00311
81 | C82U A111U A120U A145U C150A C169G U176C | 0.00231
82 | C82U A111U A120U C150A U176A | 0.00551
83 | C82U A111U A120U C150A U176G | 0.00299
84 | C82U A111U A120U C150A U176C | 0.00596
